For experiment [1], the target named is T1, Recombinant human RO60 (human, UniProt P10155 1-538). Description: BLI; rRO60 1833 nM. For orientation: BLI is a label-free optical method that tracks binding on a fibre tip over time.
For experiment [2], the target named is T1, Recombinant human RO60. Description: BLI; rRO60 917 nM.

T1 sequence (P10155 whole entry): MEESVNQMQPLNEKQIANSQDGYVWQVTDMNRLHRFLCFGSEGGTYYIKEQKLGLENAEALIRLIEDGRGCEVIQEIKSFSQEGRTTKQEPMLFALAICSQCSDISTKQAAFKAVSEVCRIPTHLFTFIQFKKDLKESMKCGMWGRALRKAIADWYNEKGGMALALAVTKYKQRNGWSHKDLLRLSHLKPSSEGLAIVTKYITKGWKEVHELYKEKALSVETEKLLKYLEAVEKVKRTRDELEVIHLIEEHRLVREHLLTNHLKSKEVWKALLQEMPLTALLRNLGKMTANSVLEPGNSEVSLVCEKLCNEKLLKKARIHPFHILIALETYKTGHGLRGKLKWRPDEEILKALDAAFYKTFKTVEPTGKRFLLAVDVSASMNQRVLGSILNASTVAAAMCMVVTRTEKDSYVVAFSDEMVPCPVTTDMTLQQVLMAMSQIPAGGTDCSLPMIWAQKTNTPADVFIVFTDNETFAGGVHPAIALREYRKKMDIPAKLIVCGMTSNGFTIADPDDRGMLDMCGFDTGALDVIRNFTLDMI

B1: Recombinant GST-tagged human DDX6 (natural protein)
chain: MSTARTENPVIMGLSSQNGQLRGPVKPTGGPGGGGTQTQQQMNQLKNTNTINNGTQQQAQSMTTTIKPGDDWKKTLKLPPKDLRIKTSDVTSTKGNEFEDYCLKRELLMGIFEMGWEKPSPIQEESIPIALSGRDILARAKNGTGKSGAYLIPLLERLDLKKDNIQAMVIVPTRELALQVSQICIQVSKHMGGAKVMATTGGTNLRDDIMRLDDTVHVVIATPGRILDLIKKGVAKVDHVQMIVLDEADKLLSQDFVQIMEDIILTLPKNRQILLYSATFPLSVQKFMNSHLQKPYEINLMEELTLKGVTQYYAYVTERQKVHCLNTLFSRLQINQSIIFCNSSQRVELLAKKISQLGYSCFYIHAKMRQEHRNRVFHDFRNGLCRNLVCTDLFTRGIDIQAVNVVINFDFPKLAETYLHRIGRSGRFGHLGLAINLITYDDRFNLKSIEEQLGTEIKPIPSNIDKSLYVAEYHSEPVEDEKP
A word on the koff: it is a measure of how fast the partners let go of each other. Take B1: the off-rate constant (koff) in experiment [1] is 0.0062 s⁻¹; in experiment [2], 0.0046 s⁻¹.

The values above are taken from publication PMC6166933 (2018).
